Laboratory results from PMC10397247.
Read-outs that look alike come from different tables or passages of the source. Values belong to the binder of their own block, whether it stands above or below them.

How the values were obtained:
[1] = target: T1, O7-bN; assay: two-hybrid library CCNG1;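 note: natural log of median RNA to DNA barcode read ratio; higher means stronger binding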
T1 chain: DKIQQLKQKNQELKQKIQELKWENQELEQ

[2] = target: T2, O8-bN; assay: two-hybrid library CCNG1;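 note: natural log of median RNA to DNA barcode read ratio; higher means stronger binding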
T2 chain: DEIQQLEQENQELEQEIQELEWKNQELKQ

[3] = target: T3, O9-bN; assay: two-hybrid library CCNG1;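 note: natural log of median RNA to DNA barcode read ratio; higher means stronger binding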
T3 chain: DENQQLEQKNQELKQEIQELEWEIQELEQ

[4] = target: T4, 4H3041-bH; assay: two-hybrid library CCNG1;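 note: natural log of median RNA to DNA barcode read ratio; higher means stronger binding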
T4 chain: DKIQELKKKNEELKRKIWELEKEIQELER

[5] = target: T5, 4H3297-bH; assay: two-hybrid library CCNG1;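 note: natural log of median RNA to DNA barcode read ratio; higher means stronger binding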
T5 chain: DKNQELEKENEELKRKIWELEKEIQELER

[6] = target: T6, 4H3364-bH; assay: two-hybrid library CCNG1;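 note: natural log of median RNA to DNA barcode read ratio; higher means stronger binding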
T6 chain: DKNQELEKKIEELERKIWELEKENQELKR

[7] = target: T7, 4H3381-bH; assay: two-hybrid library CCNG1
T7 chain: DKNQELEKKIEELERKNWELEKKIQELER

[8] = target: T8, 4H349-bH; assay: two-hybrid library CCNG1
T8 chain: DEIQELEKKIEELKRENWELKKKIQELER

[9] = target: T9, 4H56-bH; assay: two-hybrid library CCNG1
T9 chain: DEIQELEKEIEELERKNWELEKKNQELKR

[10] = target: T10, 4H730-bH; assay: two-hybrid library CCNG1
T10 chain: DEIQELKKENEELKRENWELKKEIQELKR

[11] = target: T11, 4H796-bH; assay: two-hybrid library CCNG1
T11 chain: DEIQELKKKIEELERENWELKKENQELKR

[12] = target: T12, 4H932-bH; assay: two-hybrid library CCNG1
T12 chain: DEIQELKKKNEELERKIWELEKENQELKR

[13] = target: T13, 4H949-bH; assay: two-hybrid library CCNG1
T13 chain: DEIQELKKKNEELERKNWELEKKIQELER

[14] = target: T14, O7-bH; assay: two-hybrid library CCNG1
T14 chain: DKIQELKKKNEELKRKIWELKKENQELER

[15] = target: T15, O8-bH; assay: two-hybrid library CCNG1
T15 chain: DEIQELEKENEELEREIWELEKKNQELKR

[16] = target: T16, O9-bH; assay: two-hybrid library CCNG1
T16 chain: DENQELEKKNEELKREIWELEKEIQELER

[17] = target: T17, P6mS; assay: two-hybrid library CC1
T17 chain: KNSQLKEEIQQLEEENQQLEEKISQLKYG

[18] = target: T18, P7; assay: two-hybrid library CC1; conditions: mean of both orientations
T18 chain: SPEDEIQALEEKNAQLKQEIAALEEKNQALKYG

[19] = target: T19, P7mS; assay: two-hybrid library CC1; conditions: mean of both orientations
T19 chain: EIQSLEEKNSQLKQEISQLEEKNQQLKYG

[20] = target: T20, P8; assay: two-hybrid library CC1; conditions: mean of both orientations
T20 chain: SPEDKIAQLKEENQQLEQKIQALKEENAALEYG

[21] = target: T21, P8mS; assay: two-hybrid library CC1; conditions: mean of both orientations
T21 chain: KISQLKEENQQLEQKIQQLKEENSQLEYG

[22] = target: T22, P9; assay: two-hybrid library CC1; conditions: mean of both orientations
T22 chain: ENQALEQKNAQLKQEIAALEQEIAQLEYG

[23] = target: T23, 4H327-AA; assay: two-hybrid library CCmax
T23 chain: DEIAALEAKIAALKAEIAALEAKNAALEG

[24] = target: T24, 4H3605-AA; assay: two-hybrid library CCmax; conditions: mean of both orientations
T24 chain: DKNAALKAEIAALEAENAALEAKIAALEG

[25] = target: T25, 4H3625-AA; assay: two-hybrid library CCmax; conditions: mean of both orientations
T25 chain: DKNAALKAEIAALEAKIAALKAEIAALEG

[26] = target: T26, 4H3664-AA; assay: two-hybrid library CCmax; conditions: mean of both orientations
T26 chain: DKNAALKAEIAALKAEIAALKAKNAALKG

[27] = target: T27, 4H369-AA; assay: two-hybrid library CCmax; conditions: mean of both orientations
T27 chain: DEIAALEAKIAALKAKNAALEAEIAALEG

[28] = target: T28, 4H3922-AA; assay: two-hybrid library CCmax; conditions: mean of both orientations
T28 chain: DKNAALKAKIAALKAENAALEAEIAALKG

[29] = target: T29, 4H4033-AA; assay: two-hybrid library CCmax; conditions: mean of both orientations
T29 chain: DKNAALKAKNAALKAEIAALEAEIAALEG

[30] = target: T30, 4H481-AA; assay: two-hybrid library CCmax; conditions: mean of both orientations
T30 chain: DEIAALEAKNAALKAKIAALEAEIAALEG

[31] = target: T31, 4H55-AA; assay: two-hybrid library CCmax; conditions: mean of both orientations
T31 chain: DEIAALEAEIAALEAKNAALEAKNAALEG

[32] = target: T32, 4H662-AA; assay: two-hybrid library CCmax; conditions: mean of both orientations
T32 chain: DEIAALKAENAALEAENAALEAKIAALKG

[33] = target: T33, APC2405-AA; assay: two-hybrid library CCmax
T33 chain: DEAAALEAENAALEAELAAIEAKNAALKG

[34] = target: T34, APC3645-AA; assay: two-hybrid library CCmax; conditions: mean of both orientations
T34 chain: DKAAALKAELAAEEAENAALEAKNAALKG

[35] = target: T35, APC4011-AA; assay: two-hybrid library CCmax; conditions: mean of both orientations
T35 chain: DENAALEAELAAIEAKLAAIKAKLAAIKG

[36] = target: T36, APC4264-AA; assay: two-hybrid library CCmax; conditions: mean of both orientations
T36 chain: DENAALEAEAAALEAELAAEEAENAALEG

[37] = target: T37, APC4436-AA; assay: two-hybrid library CCmax; conditions: mean of both orientations
T37 chain: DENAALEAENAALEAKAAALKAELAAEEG

[38] = target: T38, APC5383-AA; assay: two-hybrid library CCmax; conditions: mean of both orientations
T38 chain: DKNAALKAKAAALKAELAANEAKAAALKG

[39] = target: T39, APC6108-AA; assay: two-hybrid library CCmax; conditions: mean of both orientations
T39 chain: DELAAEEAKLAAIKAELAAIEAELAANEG

[40] = target: T40, APC7099-AA; assay: two-hybrid library CCmax; conditions: mean of both orientations
T40 chain: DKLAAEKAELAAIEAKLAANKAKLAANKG

[41] = target: T41, APC8191-AA; assay: two-hybrid library CCmax; conditions: mean of both orientations
T41 chain: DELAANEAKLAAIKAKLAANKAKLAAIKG

[42] = target: T42, APC8910-AA; assay: two-hybrid library CCmax; conditions: mean of both orientations
T42 chain: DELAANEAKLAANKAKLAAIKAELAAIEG

[43] = target: T43, APC9096-AA; assay: two-hybrid library CCmax; conditions: mean of both orientations
T43 chain: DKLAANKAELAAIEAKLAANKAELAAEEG

[44] = target: T44, APC9319-AA; assay: two-hybrid library CCmax; conditions: mean of both orientations
T44 chain: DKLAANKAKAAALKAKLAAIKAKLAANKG

[45] = target: T45, 4H3057-bN; assay: two-hybrid library CCNG1
T45 chain: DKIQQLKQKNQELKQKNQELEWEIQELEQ

[46] = target: T46, 4H319-bN; assay: two-hybrid library CCNG1
T46 chain: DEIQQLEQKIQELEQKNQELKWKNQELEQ

[47] = target: T47, 4H3277-bN; assay: two-hybrid library CCNG1
T47 chain: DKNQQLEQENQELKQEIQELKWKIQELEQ

[48] = target: T48, 4H348-bN; assay: two-hybrid library CCNG1
T48 chain: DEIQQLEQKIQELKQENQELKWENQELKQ

[49] = target: T49, 4H40-bN; assay: two-hybrid library CCNG1
T49 chain: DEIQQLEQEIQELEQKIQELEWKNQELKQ

[50] = target: T50, 4H477-bN; assay: two-hybrid library CCNG1
T50 chain: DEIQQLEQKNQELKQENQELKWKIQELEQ

[51] = target: T51, 4H492-bN; assay: two-hybrid library CCNG1
T51 chain: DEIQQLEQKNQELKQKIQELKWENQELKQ

[52] = target: T52, 4H741-bN; assay: two-hybrid library CCNG1
T52 chain: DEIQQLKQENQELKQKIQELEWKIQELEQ

[53] = target: T53, 4H3057-bA; assay: two-hybrid library CCNG1
T53 chain: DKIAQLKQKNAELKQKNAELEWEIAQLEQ

[54] = target: T54, 4H319-bA; assay: two-hybrid library CCNG1
T54 chain: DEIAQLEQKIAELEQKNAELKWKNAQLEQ

[55] = target: T55, 4H3277-bA; assay: two-hybrid library CCNG1
T55 chain: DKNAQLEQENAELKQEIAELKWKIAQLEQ

[56] = target: T56, 4H348-bA; assay: two-hybrid library CCNG1
T56 chain: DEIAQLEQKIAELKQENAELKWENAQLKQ

[57] = target: T57, 4H40-bA; assay: two-hybrid library CCNG1
T57 chain: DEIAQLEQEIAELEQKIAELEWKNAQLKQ

[58] = target: T58, 4H477-bA; assay: two-hybrid library CCNG1
T58 chain: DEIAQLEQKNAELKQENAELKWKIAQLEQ

[59] = target: T59, 4H492-bA; assay: two-hybrid library CCNG1
T59 chain: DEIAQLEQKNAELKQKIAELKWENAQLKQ

[60] = target: T60, 4H741-bA; assay: two-hybrid library CCNG1
T60 chain: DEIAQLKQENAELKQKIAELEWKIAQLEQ

interaction score [1]: -0.589
interaction score [2]: -0.754
interaction score [3]: -1.38
Binder: DKNQQLKQKIQELKQENQELEWKIQELKQ [O6-bN]

interaction score [4]: 0.721
interaction score [5]: 0.592
interaction score [6]: -1.08
interaction score [7]: -0.693
interaction score [8]: -0.833
interaction score [9]: 0.679
interaction score [10]: -0.877
interaction score [11]: -0.497
interaction score [12]: -0.092
interaction score [13]: -0.161
Binder: DKIQELKKKNEELKRKIWELEKEIQELER [4H3041-bH]

interaction score [14]: 0.921
interaction score [15]: -0.103
interaction score [16]: -0.548
Binder: DENQELEKEIEELERKNWELKKEIQELER [O5-bH]

Binder: KNSQLKEEIQQLEEENQQLEEKISQLKYG [P6mS]
interaction score [17]: -2.84
interaction score [18]: -2.01
interaction score [19]: -2.67
interaction score [20]: -2.63
interaction score [21]: -2.85
interaction score [22]: -2.37

interaction score [23]: 1.84
interaction score [24]: -1.29
interaction score [25]: 1.3
interaction score [26]: 0.733
interaction score [27]: -0.747
interaction score [28]: 0.621
interaction score [29]: 0.297
interaction score [30]: -0.644
interaction score [31]: -0.319
interaction score [32]: -1.42
Binder: DEIAALEAKIAALKAEIAALEAKNAALEG [4H327-AA]

interaction score [14]: 0.89
interaction score [15]: 0.914
interaction score [16]: -0.446
Binder: DKNQELKKKIEELKRENWELEKKIQELKR [O6-bH]

interaction score ([33]; mean of both orientations): -1.6
interaction score [34]: -1.5
interaction score [35]: -1.21
interaction score [36]: -1.93
interaction score [37]: -1.65
interaction score [38]: -2.15
interaction score [39]: -1.6
interaction score [40]: -1.68
interaction score [41]: -2.34
interaction score [42]: -2.1
interaction score [43]: -1.8
interaction score [44]: -1.47
Binder: DELAAIEAEAAALEAKAAALKAEAAALEG [APC232-AA]

interaction score [45]: -1.22
interaction score [46]: -1.2
interaction score [47]: -0.965
interaction score [48]: -1.34
interaction score [49]: -1.17
interaction score [50]: -2.69
interaction score [51]: -1.18
interaction score [52]: -0.673
Binder: DKIQQLKQKNQELKQKNQELEWEIQELEQ [4H3057-bN]

interaction score [53]: -0.859
interaction score [54]: -1.24
interaction score [55]: -1.24
interaction score [56]: -1.57
interaction score [57]: -1.17
interaction score [58]: -1.12
interaction score [59]: -1.16
interaction score [60]: -1.38
Binder: DKIAQLKQKNAELKQKNAELEWEIAQLEQ [4H3057-bA]

interaction score [1]: -1.44
interaction score [2]: 0.737
interaction score [3]: -1.53
Binder: DKIQQLKQKNQELKQKIQELKWENQELEQ [O7-bN]

interaction score [14]: -0.477
interaction score [15]: 1.5
interaction score [16]: 0.59
Binder: DKIQELKKKNEELKRKIWELKKENQELER [O7-bH]

interaction score [1]: -0.471
interaction score [2]: -0.445
interaction score [3]: -1.42
Binder: DENQQLEQEIQELEQKNQELKWEIQELEQ [O5-bN]

interaction score [33]: -1.47
interaction score [34]: -1.29
interaction score [35]: -1.01
interaction score [36]: -1.55
interaction score [37]: -1.04
interaction score [38]: -1.52
interaction score [39]: -1.24
interaction score [40]: -1.31
interaction score [41]: 0.786
interaction score [42]: -1.63
interaction score [43]: -1.39
interaction score [44]: -1.81
Binder: DEAAALEAENAALEAELAAIEAKNAALKG [APC2405-AA]
